Patent US20230416330A1, “Optimized GIP Peptide Analogues” (Antag Therapeutics ApS, priority 2019, published 2023)
Starred links: 1 amine or outer side, 2 acyl side, 3 side chain; linkers in the order of their positions; H or OH if unused. Non-standard residues stand in square brackets, D forms with d. Groups on a side chain read outwards from the residue. No end group written: not given here. *: point of attachment. C18 diacid = O=C(O)CCCCCCCCCCCCCCCCC(=O)*; C16 diacid = O=C(O)CCCCCCCCCCCCCCC(=O)*; γGlu = O=C(O)[C@H](CCC(=O)[*:2])N[*:1]; Glutaryl = O=C(CCCC(=O)[*:2])[*:1]; AEEA = NCCOCCOCC(=O)O; Aib = CC(C)(N)C(=O)O

B1: AT713 (peptide)
peptide: Glutaryl-GTFISEYSI[Aib]LEKIK([AEEA-AEEA-γGlu-C18 diacid])QQEFVEWLLAQKPSSGAPPPS-NH2
SMILES: CC[C@H](C)[C@H](NC(=O)[C@H](CCCCN)NC(=O)[C@H](CCC(=O)O)NC(=O)[C@H](CC(C)C)NC(=O)C(C)(C)NC(=O)[C@@H](NC(=O)[C@H](CO)NC(=O)[C@H](Cc1ccc(O)cc1)NC(=O)[C@H](CCC(=O)O)NC(=O)[C@H](CO)NC(=O)[C@@H](NC(=O)[C@H](Cc1ccccc1)NC(=O)[C@@H](NC(=O)CNC(=O)CCCC(=O)O)[C@@H](C)O)[C@@H](C)CC)[C@@H](C)CC)C(=O)N[C@@H](CCCCNC(=O)COCCOCCNC(=O)COCCOCCNC(=O)CC[C@H](NC(=O)CCCCCCCCCCCCCCCCC(=O)O)C(=O)O)C(=O)N[C@@H](CCC(N)=O)C(=O)N[C@@H](CCC(N)=O)C(=O)N[C@@H](CCC(=O)O)C(=O)N[C@@H](Cc1ccccc1)C(=O)N[C@H](C(=O)N[C@@H](CCC(=O)O)C(=O)N[C@@H](Cc1c[nH]c2ccccc12)C(=O)N[C@@H](CC(C)C)C(=O)N[C@@H](CC(C)C)C(=O)N[C@@H](C)C(=O)N[C@@H](CCC(N)=O)C(=O)N[C@@H](CCCCN)C(=O)N1CCC[C@H]1C(=O)N[C@@H](CO)C(=O)N[C@@H](CO)C(=O)NCC(=O)N[C@@H](C)C(=O)N1CCC[C@H]1C(=O)N1CCC[C@H]1C(=O)N1CCC[C@H]1C(=O)N[C@@H](CO)C(N)=O)C(C)C
B2: AT714 (peptide)
peptide: EGTFISEYSI[Aib]LEKIK([AEEA-AEEA-γGlu-C18 diacid])QQEFVEWLLAQKPSSGAPPPS-NH2
modifications: N-terminus assumed
SMILES: CC[C@H](C)[C@H](NC(=O)[C@H](CCCCN)NC(=O)[C@H](CCC(=O)O)NC(=O)[C@H](CC(C)C)NC(=O)C(C)(C)NC(=O)[C@@H](NC(=O)[C@H](CO)NC(=O)[C@H](Cc1ccc(O)cc1)NC(=O)[C@H](CCC(=O)O)NC(=O)[C@H](CO)NC(=O)[C@@H](NC(=O)[C@H](Cc1ccccc1)NC(=O)[C@@H](NC(=O)CNC(=O)[C@@H](N)CCC(=O)O)[C@@H](C)O)[C@@H](C)CC)[C@@H](C)CC)C(=O)N[C@@H](CCCCNC(=O)COCCOCCNC(=O)COCCOCCNC(=O)CC[C@H](NC(=O)CCCCCCCCCCCCCCCCC(=O)O)C(=O)O)C(=O)N[C@@H](CCC(N)=O)C(=O)N[C@@H](CCC(N)=O)C(=O)N[C@@H](CCC(=O)O)C(=O)N[C@@H](Cc1ccccc1)C(=O)N[C@H](C(=O)N[C@@H](CCC(=O)O)C(=O)N[C@@H](Cc1c[nH]c2ccccc12)C(=O)N[C@@H](CC(C)C)C(=O)N[C@@H](CC(C)C)C(=O)N[C@@H](C)C(=O)N[C@@H](CCC(N)=O)C(=O)N[C@@H](CCCCN)C(=O)N1CCC[C@H]1C(=O)N[C@@H](CO)C(=O)N[C@@H](CO)C(=O)NCC(=O)N[C@@H](C)C(=O)N1CCC[C@H]1C(=O)N1CCC[C@H]1C(=O)N1CCC[C@H]1C(=O)N[C@@H](CO)C(N)=O)C(C)C
B3: AT715 (peptide)
peptide: Glutaryl-GTFISDYSI[Aib]MDKIK(C16 diacid)QQDFVEWLLAQKPSSGAPPPS-OH
B4: AT717 (peptide)
peptide: Glutaryl-GTFISEYSI[Aib]LEKIK(C16 diacid)QQEFVEWLLAQKPSSGAPPPS-OH
SMILES: CC[C@H](C)[C@H](NC(=O)[C@H](CCCCN)NC(=O)[C@H](CCC(=O)O)NC(=O)[C@H](CC(C)C)NC(=O)C(C)(C)NC(=O)[C@@H](NC(=O)[C@H](CO)NC(=O)[C@H](Cc1ccc(O)cc1)NC(=O)[C@H](CCC(=O)O)NC(=O)[C@H](CO)NC(=O)[C@@H](NC(=O)[C@H](Cc1ccccc1)NC(=O)[C@@H](NC(=O)CNC(=O)CCCC(=O)O)[C@@H](C)O)[C@@H](C)CC)[C@@H](C)CC)C(=O)N[C@@H](CCCCNC(=O)CCCCCCCCCCCCCCC(=O)O)C(=O)N[C@@H](CCC(N)=O)C(=O)N[C@@H](CCC(N)=O)C(=O)N[C@@H](CCC(=O)O)C(=O)N[C@@H](Cc1ccccc1)C(=O)N[C@H](C(=O)N[C@@H](CCC(=O)O)C(=O)N[C@@H](Cc1c[nH]c2ccccc12)C(=O)N[C@@H](CC(C)C)C(=O)N[C@@H](CC(C)C)C(=O)N[C@@H](C)C(=O)N[C@@H](CCC(N)=O)C(=O)N[C@@H](CCCCN)C(=O)N1CCC[C@H]1C(=O)N[C@@H](CO)C(=O)N[C@@H](CO)C(=O)NCC(=O)N[C@@H](C)C(=O)N1CCC[C@H]1C(=O)N1CCC[C@H]1C(=O)N1CCC[C@H]1C(=O)N[C@@H](CO)C(=O)O)C(C)C
B5: AT718 (peptide)
peptide: EGTFISEYSIALEKIK(C16 diacid)QQEFVEWLLAQKPSSGAPPPS-OH
B6: AT716 (peptide)
peptide: EGTFISEYSI[Aib]MEKIK(C16 diacid)QQDFVEWLLAQKPSSGAPPPS-OH
modifications: N-terminus assumed
SMILES: CC[C@H](C)[C@H](NC(=O)[C@H](CCCCN)NC(=O)[C@H](CCC(=O)O)NC(=O)[C@H](CCSC)NC(=O)C(C)(C)NC(=O)[C@@H](NC(=O)[C@H](CO)NC(=O)[C@H](Cc1ccc(O)cc1)NC(=O)[C@H](CCC(=O)O)NC(=O)[C@H](CO)NC(=O)[C@@H](NC(=O)[C@H](Cc1ccccc1)NC(=O)[C@@H](NC(=O)CNC(=O)[C@@H](N)CCC(=O)O)[C@@H](C)O)[C@@H](C)CC)[C@@H](C)CC)C(=O)N[C@@H](CCCCNC(=O)CCCCCCCCCCCCCCC(=O)O)C(=O)N[C@@H](CCC(N)=O)C(=O)N[C@@H](CCC(N)=O)C(=O)N[C@@H](CC(=O)O)C(=O)N[C@@H](Cc1ccccc1)C(=O)N[C@H](C(=O)N[C@@H](CCC(=O)O)C(=O)N[C@@H](Cc1c[nH]c2ccccc12)C(=O)N[C@@H](CC(C)C)C(=O)N[C@@H](CC(C)C)C(=O)N[C@@H](C)C(=O)N[C@@H](CCC(N)=O)C(=O)N[C@@H](CCCCN)C(=O)N1CCC[C@H]1C(=O)N[C@@H](CO)C(=O)N[C@@H](CO)C(=O)NCC(=O)N[C@@H](C)C(=O)N1CCC[C@H]1C(=O)N1CCC[C@H]1C(=O)N1CCC[C@H]1C(=O)N[C@@H](CO)C(=O)O)C(C)C
B7: AT616 (peptide)
peptide: EGTFISEYSI[Aib]MEKIK(C16 diacid)QQDFVEWLLAQKPSSGAPPPS-OH
modifications: N-terminus assumed
SMILES: CC[C@H](C)[C@H](NC(=O)[C@H](CCCCN)NC(=O)[C@H](CCC(=O)O)NC(=O)[C@H](CCSC)NC(=O)C(C)(C)NC(=O)[C@@H](NC(=O)[C@H](CO)NC(=O)[C@H](Cc1ccc(O)cc1)NC(=O)[C@H](CCC(=O)O)NC(=O)[C@H](CO)NC(=O)[C@@H](NC(=O)[C@H](Cc1ccccc1)NC(=O)[C@@H](NC(=O)CNC(=O)[C@@H](N)CCC(=O)O)[C@@H](C)O)[C@@H](C)CC)[C@@H](C)CC)C(=O)N[C@@H](CCCCNC(=O)CCCCCCCCCCCCCCC(=O)O)C(=O)N[C@@H](CCC(N)=O)C(=O)N[C@@H](CCC(N)=O)C(=O)N[C@@H](CC(=O)O)C(=O)N[C@@H](Cc1ccccc1)C(=O)N[C@H](C(=O)N[C@@H](CCC(=O)O)C(=O)N[C@@H](Cc1c[nH]c2ccccc12)C(=O)N[C@@H](CC(C)C)C(=O)N[C@@H](CC(C)C)C(=O)N[C@@H](C)C(=O)N[C@@H](CCC(N)=O)C(=O)N[C@@H](CCCCN)C(=O)N1CCC[C@H]1C(=O)N[C@@H](CO)C(=O)N[C@@H](CO)C(=O)NCC(=O)N[C@@H](C)C(=O)N1CCC[C@H]1C(=O)N1CCC[C@H]1C(=O)N1CCC[C@H]1C(=O)N[C@@H](CO)C(=O)O)C(C)C
B8: AT614 (peptide)
peptide: EGTFISEYSIAMEKIK(C16 diacid)QQEFVEWLLAQKPSSGAPPPS-OH
modifications: N-terminus assumed
SMILES: CC[C@H](C)[C@H](NC(=O)[C@H](CO)NC(=O)[C@H](Cc1ccc(O)cc1)NC(=O)[C@H](CCC(=O)O)NC(=O)[C@H](CO)NC(=O)[C@@H](NC(=O)[C@H](Cc1ccccc1)NC(=O)[C@@H](NC(=O)CNC(=O)[C@@H](N)CCC(=O)O)[C@@H](C)O)[C@@H](C)CC)C(=O)N[C@@H](C)C(=O)N[C@@H](CCSC)C(=O)N[C@@H](CCC(=O)O)C(=O)N[C@@H](CCCCN)C(=O)N[C@H](C(=O)N[C@@H](CCCCNC(=O)CCCCCCCCCCCCCCC(=O)O)C(=O)N[C@@H](CCC(N)=O)C(=O)N[C@@H](CCC(N)=O)C(=O)N[C@@H](CCC(=O)O)C(=O)N[C@@H](Cc1ccccc1)C(=O)N[C@H](C(=O)N[C@@H](CCC(=O)O)C(=O)N[C@@H](Cc1c[nH]c2ccccc12)C(=O)N[C@@H](CC(C)C)C(=O)N[C@@H](CC(C)C)C(=O)N[C@@H](C)C(=O)N[C@@H](CCC(N)=O)C(=O)N[C@@H](CCCCN)C(=O)N1CCC[C@H]1C(=O)N[C@@H](CO)C(=O)N[C@@H](CO)C(=O)NCC(=O)N[C@@H](C)C(=O)N1CCC[C@H]1C(=O)N1CCC[C@H]1C(=O)N1CCC[C@H]1C(=O)N[C@@H](CO)C(=O)O)C(C)C)[C@@H](C)CC

Legend:
[1] = molecular target: T1, human GIP receptor (human, UniProt P48546 22-466); test: cell-based or functional assay
T1 sequence (looked up): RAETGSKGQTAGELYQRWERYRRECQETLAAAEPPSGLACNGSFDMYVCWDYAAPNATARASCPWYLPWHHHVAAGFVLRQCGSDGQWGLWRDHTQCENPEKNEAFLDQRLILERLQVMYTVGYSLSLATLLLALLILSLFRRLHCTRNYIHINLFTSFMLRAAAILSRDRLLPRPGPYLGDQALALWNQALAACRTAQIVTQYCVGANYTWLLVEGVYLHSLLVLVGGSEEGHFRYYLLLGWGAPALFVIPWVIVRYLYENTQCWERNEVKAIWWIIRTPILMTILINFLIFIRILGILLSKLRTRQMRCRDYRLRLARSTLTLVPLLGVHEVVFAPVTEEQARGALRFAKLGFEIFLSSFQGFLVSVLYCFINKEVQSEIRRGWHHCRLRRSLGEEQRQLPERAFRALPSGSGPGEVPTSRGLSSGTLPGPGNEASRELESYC

[2] = molecular target: T1, human GIP receptor; test: cell-based or functional assay; remark: listed apart in the source

Binder	nM (Kb, Gaddum assay, cAMP) [1] [nM]	pKb (Gaddum assay, cAMP) [1]	cAMP antagonism % inhib (CisBio assay) [2] [%]	cAMP antagonism nM (IC50, CisBio assay) [2] [nM]	cAMP antagonism pIC50 (CisBio assay) [2]
B1	0.31	9.5	–	–	–
B2	0.43	9.4	–	–	–
B3	0.19	9.7	–	–	–
B4	0.17	9.8	–	–	–
B5	0.33	9.5	–	–	–
B6	0.29	9.5	–	–	–
B7	–	–	100	0.473	9.3
B8	–	–	100	1.08	9
